Results published in patent US20210246166A1 (Bayer, published 2021).
Numbered stars: 1 amine (or outer) side, 2 acyl side, 3 side chain; on linkers, the order of the positions; unused ones are H or OH. Bridge positions count the residues as written; N and C are the ends. Square brackets hold non-standard residues; d marks the D form. Ends that are not written are not given here. * marks the point of attachment. cPrCO(1-aminomethyl) = O=C(C1(CN[*:1])CC1)[*:2]; Dihydroorotyl(S) = O=C1C[C@@H](C(=O)*)NC(=O)N1; Oic = O=C(O)[C@@H]1C[C@@H]2CCCC[C@@H]2N1; PEG7 = NCCOCCOCCOCCOCCOCCOCCOCCC(=O)O; tBuAla = CC(C)(C)C[C@H](N)C(=O)O; Pen = CC(C)(S)[C@H](N)C(=O)O; NMeC = CN[C@@H](CS)C(=O)O; Orn = NCCC[C@H](N)C(=O)O; GABA = NCCCC(=O)O; Sar = CNCC(=O)O

T1: recombinant human MASP1 active protease (amino acids 297-699, C-terminal His Tag) (human, UniProt P48740 297-699)
T1 sequence: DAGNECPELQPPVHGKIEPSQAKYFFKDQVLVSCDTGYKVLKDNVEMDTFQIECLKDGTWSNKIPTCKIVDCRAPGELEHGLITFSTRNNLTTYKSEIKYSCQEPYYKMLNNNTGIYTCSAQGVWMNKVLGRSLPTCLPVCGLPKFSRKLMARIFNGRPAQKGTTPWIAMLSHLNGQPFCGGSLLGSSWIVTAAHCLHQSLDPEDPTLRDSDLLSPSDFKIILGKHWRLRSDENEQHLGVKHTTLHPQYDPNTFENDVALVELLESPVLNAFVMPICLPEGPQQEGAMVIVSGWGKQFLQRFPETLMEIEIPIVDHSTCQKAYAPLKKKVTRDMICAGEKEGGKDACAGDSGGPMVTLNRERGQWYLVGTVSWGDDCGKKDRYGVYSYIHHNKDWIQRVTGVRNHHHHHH

B1: (ACMP)-IC+SRS-((tBu)A)-PPI-(Pen)+IPD-NH2 (peptide)
peptide: [cPrCO(1-aminomethyl)]ICSRS[tBuAla]PPI[Pen]IPD-NH2
modifications: disulfide 3-11; N-terminus assumed
SMILES: CC[C@H](C)[C@@H]1NC(=O)[C@@H]2CCCN2C(=O)[C@@H]2CCCN2C(=O)[C@H](CC(C)(C)C)NC(=O)[C@H](CO)NC(=O)[C@H](CCCNC(=N)N)NC(=O)[C@H](CO)NC(=O)[C@@H](NC(=O)[C@@H](NC(=O)C2(CN)CC2)[C@@H](C)CC)CSSC(C)(C)[C@@H](C(=O)N[C@H](C(=O)N2CCC[C@H]2C(=O)N[C@@H](CC(=O)O)C(N)=O)[C@@H](C)CC)NC1=O
B2: (Orn)-IC+SRS-((tBu)A)-PPI-(Pen)+IPD-OH (peptide)
peptide: [Orn]ICSRS[tBuAla]PPI[Pen]IPD-OH
modifications: disulfide 3-11; N-terminus assumed
SMILES: CC[C@H](C)[C@H](NC(=O)[C@@H](N)CCCN)C(=O)N[C@H]1CSSC(C)(C)[C@@H](C(=O)N[C@H](C(=O)N2CCC[C@H]2C(=O)N[C@@H](CC(=O)O)C(=O)O)[C@@H](C)CC)NC(=O)[C@H]([C@@H](C)CC)NC(=O)[C@@H]2CCCN2C(=O)[C@@H]2CCCN2C(=O)[C@H](CC(C)(C)C)NC(=O)[C@H](CO)NC(=O)[C@H](CCCNC(=N)N)NC(=O)[C@H](CO)NC1=O
B3: ((N-Me)G)-IC+SRS-((tBu)A)-PPI-(Pen)+IP-(PEG7(25 atoms))-NH2 (peptide)
peptide: [Sar]ICSRS[tBuAla]PPI[Pen]IP[PEG7]-NH2
modifications: disulfide 3-11; N-terminus assumed
SMILES: CC[C@H](C)[C@H](NC(=O)CNC)C(=O)N[C@H]1CSSC(C)(C)[C@@H](C(=O)N[C@H](C(=O)N2CCC[C@H]2C(=O)NCCOCCOCCOCCOCCOCCOCCOCCC(N)=O)[C@@H](C)CC)NC(=O)[C@H]([C@@H](C)CC)NC(=O)[C@@H]2CCCN2C(=O)[C@@H]2CCCN2C(=O)[C@H](CC(C)(C)C)NC(=O)[C@H](CO)NC(=O)[C@H](CCCNC(=N)N)NC(=O)[C@H](CO)NC1=O
B4: (beta-P)-IC+SRS-((tBu)A)-PPI-(Pen)+IP-NH2 (peptide)
peptide: PICSRS[tBuAla]PPI[Pen]IP-NH2
modifications: disulfide 3-11; N-terminus assumed
SMILES: CC[C@H](C)[C@H](NC(=O)[C@@H]1CCCN1)C(=O)N[C@H]1CSSC(C)(C)[C@@H](C(=O)N[C@H](C(=O)N2CCC[C@H]2C(N)=O)[C@@H](C)CC)NC(=O)[C@H]([C@@H](C)CC)NC(=O)[C@@H]2CCCN2C(=O)[C@@H]2CCCN2C(=O)[C@H](CC(C)(C)C)NC(=O)[C@H](CO)NC(=O)[C@H](CCCNC(=N)N)NC(=O)[C@H](CO)NC1=O
B5: ((N-Me)G)-IC+SRSLP-(Oic)-I-(Pen)+IP-(PEG7(25 atoms))-NH2 (peptide)
peptide: [Sar]ICSRSLP[Oic]I[Pen]IP[PEG7]-NH2
modifications: disulfide 3-11; N-terminus assumed
SMILES: CC[C@H](C)[C@H](NC(=O)CNC)C(=O)N[C@H]1CSSC(C)(C)[C@@H](C(=O)N[C@H](C(=O)N2CCC[C@H]2C(=O)NCCOCCOCCOCCOCCOCCOCCOCCC(N)=O)[C@@H](C)CC)NC(=O)[C@H]([C@@H](C)CC)NC(=O)[C@@H]2C[C@@H]3CCCC[C@@H]3N2C(=O)[C@@H]2CCCN2C(=O)[C@H](CC(C)C)NC(=O)[C@H](CO)NC(=O)[C@H](CCCNC(=N)N)NC(=O)[C@H](CO)NC1=O
B6: (Hoo)-IC+SRS-((tBu)A)-PPI-(Pen)+IPD-NH2 (peptide)
peptide: [Dihydroorotyl(S)]ICSRS[tBuAla]PPI[Pen]IPD-NH2
modifications: disulfide 3-11
SMILES: CC[C@H](C)[C@H](NC(=O)[C@@H]1CC(=O)NC(=O)N1)C(=O)N[C@H]1CSSC(C)(C)[C@@H](C(=O)N[C@H](C(=O)N2CCC[C@H]2C(=O)N[C@@H](CC(=O)O)C(N)=O)[C@@H](C)CC)NC(=O)[C@H]([C@@H](C)CC)NC(=O)[C@@H]2CCCN2C(=O)[C@@H]2CCCN2C(=O)[C@H](CC(C)(C)C)NC(=O)[C@H](CO)NC(=O)[C@H](CCCNC(=N)N)NC(=O)[C@H](CO)NC1=O
B7: AIC+SRSLP-(Oic)-I-((N-Me)C)+IP-NH2 (peptide)
peptide: AICSRSLP[Oic]I[NMeC]IP-NH2
modifications: disulfide 3-11; N-terminus assumed
SMILES: CC[C@H](C)[C@H](NC(=O)[C@H](C)N)C(=O)N[C@H]1CSSC[C@@H](C(=O)N[C@H](C(=O)N2CCC[C@H]2C(N)=O)[C@@H](C)CC)N(C)C(=O)[C@H]([C@@H](C)CC)NC(=O)[C@@H]2C[C@@H]3CCCC[C@@H]3N2C(=O)[C@@H]2CCCN2C(=O)[C@H](CC(C)C)NC(=O)[C@H](CO)NC(=O)[C@H](CCCNC(=N)N)NC(=O)[C@H](CO)NC1=O
B8: AIC+SRS-((tBu)A)-P-(Oic)-IC+I-NH2 (peptide)
peptide: AICSRS[tBuAla]P[Oic]ICI-NH2
modifications: disulfide 3-11; N-terminus assumed
SMILES: CC[C@H](C)[C@H](NC(=O)[C@@H]1CSSC[C@H](NC(=O)[C@@H](NC(=O)[C@H](C)N)[C@@H](C)CC)C(=O)N[C@@H](CO)C(=O)N[C@@H](CCCNC(=N)N)C(=O)N[C@@H](CO)C(=O)N[C@@H](CC(C)(C)C)C(=O)N2CCC[C@H]2C(=O)N2[C@@H](C[C@@H]3CCCC[C@@H]32)C(=O)N[C@@H]([C@@H](C)CC)C(=O)N1)C(N)=O
B9: (Gamma-Abu)-IC+SRS-((tBu)A)-PPI-(Pen)+IPD-NH2 (peptide)
peptide: [GABA]ICSRS[tBuAla]PPI[Pen]IPD-NH2
modifications: disulfide 3-11; N-terminus assumed
SMILES: CC[C@H](C)[C@H](NC(=O)CCCN)C(=O)N[C@H]1CSSC(C)(C)[C@@H](C(=O)N[C@H](C(=O)N2CCC[C@H]2C(=O)N[C@@H](CC(=O)O)C(N)=O)[C@@H](C)CC)NC(=O)[C@H]([C@@H](C)CC)NC(=O)[C@@H]2CCCN2C(=O)[C@@H]2CCCN2C(=O)[C@H](CC(C)(C)C)NC(=O)[C@H](CO)NC(=O)[C@H](CCCNC(=N)N)NC(=O)[C@H](CO)NC1=O
B10: AIC+SRS-((tBu)A)-P-(Oic)-IC+I-NH2 (peptide)
peptide: AICSRS[tBuAla]P[Oic]ICI-NH2
modifications: disulfide 3-11; N-terminus assumed
SMILES: CC[C@H](C)[C@H](NC(=O)[C@@H]1CSSC[C@H](NC(=O)[C@@H](NC(=O)[C@H](C)N)[C@@H](C)CC)C(=O)N[C@@H](CO)C(=O)N[C@@H](CCCNC(=N)N)C(=O)N[C@@H](CO)C(=O)N[C@@H](CC(C)(C)C)C(=O)N2CCC[C@H]2C(=O)N2[C@@H](C[C@@H]3CCCC[C@@H]32)C(=O)N[C@@H]([C@@H](C)CC)C(=O)N1)C(N)=O

Target: T1, recombinant human MASP1 active protease …
Test: cell-based or functional assay

Row | human MASP1 IC50 | Binder
1 | 1.6 nM | B1
2 | 2.45 nM | AICSRSLP[Oic]I[Pen]IPD-OH (disulfide 3-11; also: HCl salt) [AIC+SRSLP-(Oic)-I-(Pen)+IPD-OH (HCl salt)]
3 | 1.5 nM | AICSRSLP[Oic]I[Pen]IPD-NH2 (disulfide 3-11; also: HCl salt) [AIC+SRSLP-(Oic)-I-(Pen)+IPD-NH2 (HCl salt)]
4 | 1.35 nM | B2
5 | 1.6 nM | B3
6 | 1.1 nM | B4
7 | 1.5 nM | AICSRSLP[Oic]I[Pen]IPD-NH2 (disulfide 3-11) [AIC+SRSLP-(Oic)-I-(Pen)+IPD-NH2 (salt free form)]
8 | 3.7 nM | B5
9 | 1.6 nM | [(1R,3S,4S)‑2‑azabicyclo(2.2.1)heptane‑3‑carboxylic acid]ICSRS[tBuAla]PPI[Pen]IP-NH2 (disulfide 3-11) [((1R,3S,4S)-2-azabicyclo[2.2.1]heptane-3-carboxylic acid)-IC+SRS-((tBu)A)-PPI-(Pen)+IP-NH2]
10 | 3 nM | B6
11 | 3.2 nM | B7
12 | 3.3 nM | B8
13 | 1.85 nM | AICSRSLP[Oic]I[Pen]IPD-OH (disulfide 3-11; also: TFA salt) [AIC+SRSLP-(Oic)-I-(Pen)+IPD-OH]
14 | 3 nM | B9
15 | 2.7 nM | B10
